Data on eleven molecules can be found in patent US20120148593A1 (published 2012).

Positions count from the first letter of the chain named.

First the molecules themselves.
B1: mu18H10 murine monoclonal antibody (antibody, mouse IgG2b, V domains shown)
VH: QVQLQQSGADLVRPGALVKLSCTASGFNIKDSYIHWVKKRPEWGLEWIGWTDPENVNSIYDPRFQGKASITADTSSNTAFLQLTSLTSEDTAVYYCARGYNGVYYAMDYWGQGTTVTVSS
VL: QIVLTQSPSIMSASLGEEITLTCSASSSVIYMHWYQQKSGTSPKLLIYRTYNLASGVPSRFSGSGSGTFYSLTISSVEAEDAADYYCHQWSSFPYTFGGGTKLEIKR
B2: chimeric 15C1 MAb (antibody, V domains shown)
VH: DVQLQESGPDLIQPSQSLSLTCTVTGYSITGGYSWHWIRQFPGNKLEWMGYIHYSGYTDFNPSLKTRISITRDTSKNQFFLQLNSVTTEDTATYYCARKDPSDGFPYWGQGTLVTVSA
VL: DIVMTQSPATLSVTPGDRVSLSCRASQSISDHLHWYQQKSHESPRLLIKYASHAISGIPSRFSGSGSGTDFTLSIKSVEPEDIGVYYCQNGHSFPLTFGAGTKLELKR
notes: also called 15C1 CHIM; 15C1 chimeric antibody
B3: hu15C1 4-28 QC 30/A26 variant (antibody, V domains shown)
VH: QVQLQESGPGLVKPSDTLSLTCAVSGYSISGGYSWHWIRQPPGKGLEWMGYIHYSGYTDFNPSLKTRITISRDTSKNQFSLKLSSVTAVDTAVYYCARKDPSDGFPYWGQGTLVTVSS
VL: EIVLTQSPDFQSVTPKEKVTITCRASQSISDHLHWYQQKPDQSPKLLIKYASHAISGVPSRFSGSGSGTDFTLTINSLEAEDAATYYCQNGHSFPLTFGGGTKVEIK
notes: also called 15C1 4-28° C.30/A26
B4: hu15C1 4-28 QC 67/A26 variant (antibody, V domains shown)
VH: B3 VH with S30T, I68V
VL: B3 VL
notes: also called 15C1 4-28° C.67/A26
B5: hu15C1 4-28 QC 48/A26 variant (antibody, V domains shown)
VH: B3 VH with S30T, M49I
VL: B3 VL
notes: also called 15C1 4-28° C.48/A26
B6: hu15C1 4-28 QC 69/A26 variant (antibody, V domains shown)
VH: B3 VH with S30T, I70M
VL: B3 VL
notes: also called 15C1 4-28° C.69/A26
B7: chimeric 18H10 MAb (antibody, V domains shown)
VH: B1 VH
VL: B1 VL
notes: also called 18H10chim; 18H10 chimeric antibody
B8: chimeric 7E3 MAb (antibody, V domains shown)
VH: QVTLKESGPGILQPSQTLSLTCSFSGFSLTTYNIGVGWIRQPSGKGLEWLAHIWWNDNIYYNTVLKSRLTFSKDTSNNQVFLKIASVDIADTATYYCIRMAEGRYDAMDYWGQGTSVTVSS
VL: AIQMTQSTSSLSASLGDRVTINCRASQDITNYLNWYQQKPDGTVRLLIYYTSKLHSGAPSRFSGRGSGTDYSLTISNLEQEDIATYFCQQGNTFPWTFGGGTKLEIKR
notes: also called 7E3 CHIM; 7E3 chimeric antibody
B9: mu15C1 murine monoclonal antibody (antibody, mouse IgG1, V domains shown)
VH: B2 VH
VL: B2 VL
B10: mu16G7 murine monoclonal antibody (antibody, mouse IgG1, V domains shown)
VH: QVKLQESGAELMKPGASVKISCKATGYKFSDYWIEWIKQRPGHGLEWIGEILPGSGSTNYNEDFKDKATFTSDTSSNTAYMQLSSLTSEDSAVYYCAKEERAYYFGYWGQGTTVTVSS
VL: DVEMTQTPLSLPVSLGDQASISCRSSQSLENSNGNTYLNWYLQKPGQSPQLLIYRVSNRFSGVLDRFSGSGSGTDFTLKISRVEAEDLGVYFCLQVTHVPPTFGAGTKLELKR
B11: mu7E3 murine monoclonal antibody (antibody, mouse IgG1, V domains shown)
VH: B8 VH
VL: B8 VL

The target of one assay is T1, recombinant soluble MD-2 purified from baculovirus-infected insect cell supernatants (Homo sapiens (Human), UniProt Q9Y6Y9 19-160).
T1 construct: not shown: C-terminal FLAG and 6xHIS tags
T1 chain: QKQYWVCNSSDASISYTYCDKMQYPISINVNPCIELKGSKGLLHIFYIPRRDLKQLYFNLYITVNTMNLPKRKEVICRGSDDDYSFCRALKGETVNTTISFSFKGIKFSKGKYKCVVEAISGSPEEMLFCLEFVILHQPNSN
The assay is described as follows: direct ELISA, MD-2 coated at 5 µg/ml. The method, then: Recombinant soluble MD-2 with C terminal FLAG and histidine epitope tags was coated at a concentration of 5 μg/ml in 50 μl PBS on ELISA plates (Nunc Maxisorp). Wells were blocked with 200 μl PBS 2% BSA and subsequently incubated with the appropriate MAb at the indicated concentration in PBS 1% BSA. Following 3 wash steps with PBS 0.05% Tween 20, 50 μl HRP conjugated goat anti-mouse IgG (H+L) at a 1:5000 dilution was added to the wells. […] Plates were read at a wavelength of 650 nm.
Using direct ELISA, no binding of mu18H10 to recombinant soluble MD-2 generated with the baculovirus expression system was detected (FIG. 5a).
(In general: An ELISA detects its analyte on a solid surface through an enzyme-linked reagent.)
Turning to B1, the binding result is listed as “no binding”.

The next assay has as its target T2, human TLR4/MD-2 receptor complex expressed on transfected cells (human, UniProt O00206 24-839; Q9Y6Y9 19-160).
T2 construct: Tags differ by cell line: CHO-K1: N-terminal c-myc on TLR4, C-terminal c-Myc and Protein C on MD-2; also called TLR4/MD-2 complex; hTLR4/MD-2
The assay is described as follows: flow cytometry, TLR4/MD-2 transfected CHO cells. The method, then: FIG. 41 is a graph depicting that the hu15C1 humanized antibody that includes VH 4-28 shown in SEQ ID NO:45 (“15C1 4-28/A26”) and variants thereof in which residues at chosen positions have been replaced by the corresponding amino acid in the given human germline (“15C1 4-28° C.30/A26”; “15C1 4-28° C.48/A26”; “15C1 4-28° C.67/A26” and “15C1 4-28° C.69/A26”, see TABLE 1) are capable of binding specifically to the human TLR4/MD-2 complex on the surface of transfected CHO cells. MAb binding to the TLR4/MD-2 transfected CHO cells is shown by flow cytometry using the hu15C1 antibodies or the chimeric 15C1 (“15C1 CHIM”) (described above) at the concentrations indicated. Binding is measured as a cellular Mean Fluorescence Intensity (MFI) value.
For B2, the binding result is listed as “binds”.
With B3, the binding result was “binds”.
Still for that read-out and setting: the value for B4 was “binds”; that for B5 was “binds”.
B6: the binding result is “binds”.
The same measure, in the same setting: next, B7: “binds”.
Turning to B8, the binding result is “binds”.

Another assay addresses T3, human MD-2 expressed in transfected HEK 293 cells (human, UniProt Q9Y6Y9 19-160).
T3 construct: also called MD-2 alone; wt MD-2
T3 chain: T1 chain
Put plainly: sandwich ELISA, capture on anti-FLAG M2, biotinylated mu18H10. The method, then:
For sample preparation, HEK 293 cells were transfected with the appropriate plasmid constructs using the Fugene 6™ transfection reagent as described in paragraph G above. 48 hours post-transfection, cells were collected and cleared by centrifugation. Cells were subsequently incubated with biotinylated mu18H10 (10 μg/ml) and lysed in 20 mM Tris pH 7.4, 150 mM NaCl, 1% NP40 containing COMPLETE™ protease inhibitors (Roche).
To perform the sandwich ELISA, Nunc maxisorp plate wells were coated with 50 μl of the anti-FLAG™ M2 MAb (Sigma) at a concentration of 5 μg/ml in PBS. Wells were blocked with 200 μl PBS 2% BSA and subsequently incubated with 50 μl of the appropriate samples at the indicated dilution. Wells were washed three times with 200 μl PBS 0.05% Tween 20 and incubated with 50 μl of the appropriate antibody (10 μg/ml for biotinylated mu18H10 and 12D4, 1 μg/ml for the polyclonal […]). Following a wash step as above, wells were incubated with 50 μl of the appropriate detection antibody (HRP conjugated streptavidin at a dilution of 1:1500 for the biotinylated MAbs and HRP conjugated anti-rabbit IgG (H+L) at a dilution of 1:5000 for the polyclonal rabbit Ab). […] Plates were read at a wavelength of 650 nm.
For B1, the binding result is “no binding (tested: 10 µg/ml)”.

The target in another assay is T2, human TLR4/MD-2 receptor complex …. Put plainly: flow cytometry, mock transfected vs TLR4/MD-2 transfected cells. (In general: In flow cytometry, cells or beads pass a laser one at a time.)
Target sequence in this assay (O00206 24-839 limits assumed, chain 1 of 2, one chain of several): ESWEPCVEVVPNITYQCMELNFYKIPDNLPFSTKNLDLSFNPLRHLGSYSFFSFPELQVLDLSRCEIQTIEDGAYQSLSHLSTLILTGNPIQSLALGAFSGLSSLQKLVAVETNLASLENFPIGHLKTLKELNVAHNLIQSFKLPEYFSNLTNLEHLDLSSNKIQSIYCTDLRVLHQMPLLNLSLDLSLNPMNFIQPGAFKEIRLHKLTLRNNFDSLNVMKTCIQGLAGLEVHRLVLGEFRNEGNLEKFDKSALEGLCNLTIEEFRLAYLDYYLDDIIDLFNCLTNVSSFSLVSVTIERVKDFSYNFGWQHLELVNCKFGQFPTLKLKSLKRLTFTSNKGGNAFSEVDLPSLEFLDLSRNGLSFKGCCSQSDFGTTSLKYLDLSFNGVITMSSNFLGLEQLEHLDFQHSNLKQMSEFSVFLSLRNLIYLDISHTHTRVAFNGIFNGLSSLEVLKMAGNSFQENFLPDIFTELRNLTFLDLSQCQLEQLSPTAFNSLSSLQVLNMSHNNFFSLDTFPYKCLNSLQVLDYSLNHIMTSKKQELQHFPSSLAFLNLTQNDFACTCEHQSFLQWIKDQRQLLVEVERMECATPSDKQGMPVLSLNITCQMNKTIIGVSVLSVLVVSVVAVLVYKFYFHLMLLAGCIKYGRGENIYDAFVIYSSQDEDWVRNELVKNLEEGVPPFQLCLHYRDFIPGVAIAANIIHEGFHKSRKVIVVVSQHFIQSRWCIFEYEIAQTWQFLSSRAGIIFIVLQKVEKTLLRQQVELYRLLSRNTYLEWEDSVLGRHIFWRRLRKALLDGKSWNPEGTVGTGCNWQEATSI
As to B9, the binding result is on record as “binds”.
As for B10, the binding result was “binds”.
As to B1, the binding result is given as “binds”.
Take B11: the binding result is listed as “binds”.
